In article PMC7954794, “Protein context shapes the specificity of SH3 domain-mediated interactions in vivo” (Nature Communications, 2021):

Tested on: Abp1 PPIs
Experiment: DHFR-PCA of Abp1 SH3-swapped baits (Fig. 2B-D, S2C, S2F);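 for Protein-protein interaction distance between Abp1 SH3-swapped baits, to ABP1: Euclidean distance between DHFR-PCA score profiles of the baits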;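 for Protein-protein interaction distance between Abp1 SH3-swapped baits, to BEM1-2: Euclidean distance between DHFR-PCA score profiles of the baits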;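 for Protein-protein interaction distance between Abp1 SH3-swapped baits, to BOI1: Euclidean distance between DHFR-PCA score profiles of the baits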;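 for Protein-protein interaction distance between Abp1 SH3-swapped baits, to BZZ1-1: Euclidean distance between DHFR-PCA score profiles of the baits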
Format: cell-based, Saccharomyces cerevisiae
Outline: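 Interactions were scored by DHFR protein-fragment complementation. DHFR F[1,2]-tagged Abp1 strains, whose SH3 was swapped for yeast or human ortholog domains, were crossed on YPD at 30 °C for 48 h with a 1536-format array of 575 prey-DHFR F[3] strains and 40 negatives, giving four replicates per pair. PCA selection lasted 4 days after double diploid selection.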

[1] = number of PPIs, difference, Abp1 SH3-swapped with the listed SH3, Fig2D,S2F

B1: MYO3 (protein, UniProt P36006 1-1272, looked up)
Myosin-3: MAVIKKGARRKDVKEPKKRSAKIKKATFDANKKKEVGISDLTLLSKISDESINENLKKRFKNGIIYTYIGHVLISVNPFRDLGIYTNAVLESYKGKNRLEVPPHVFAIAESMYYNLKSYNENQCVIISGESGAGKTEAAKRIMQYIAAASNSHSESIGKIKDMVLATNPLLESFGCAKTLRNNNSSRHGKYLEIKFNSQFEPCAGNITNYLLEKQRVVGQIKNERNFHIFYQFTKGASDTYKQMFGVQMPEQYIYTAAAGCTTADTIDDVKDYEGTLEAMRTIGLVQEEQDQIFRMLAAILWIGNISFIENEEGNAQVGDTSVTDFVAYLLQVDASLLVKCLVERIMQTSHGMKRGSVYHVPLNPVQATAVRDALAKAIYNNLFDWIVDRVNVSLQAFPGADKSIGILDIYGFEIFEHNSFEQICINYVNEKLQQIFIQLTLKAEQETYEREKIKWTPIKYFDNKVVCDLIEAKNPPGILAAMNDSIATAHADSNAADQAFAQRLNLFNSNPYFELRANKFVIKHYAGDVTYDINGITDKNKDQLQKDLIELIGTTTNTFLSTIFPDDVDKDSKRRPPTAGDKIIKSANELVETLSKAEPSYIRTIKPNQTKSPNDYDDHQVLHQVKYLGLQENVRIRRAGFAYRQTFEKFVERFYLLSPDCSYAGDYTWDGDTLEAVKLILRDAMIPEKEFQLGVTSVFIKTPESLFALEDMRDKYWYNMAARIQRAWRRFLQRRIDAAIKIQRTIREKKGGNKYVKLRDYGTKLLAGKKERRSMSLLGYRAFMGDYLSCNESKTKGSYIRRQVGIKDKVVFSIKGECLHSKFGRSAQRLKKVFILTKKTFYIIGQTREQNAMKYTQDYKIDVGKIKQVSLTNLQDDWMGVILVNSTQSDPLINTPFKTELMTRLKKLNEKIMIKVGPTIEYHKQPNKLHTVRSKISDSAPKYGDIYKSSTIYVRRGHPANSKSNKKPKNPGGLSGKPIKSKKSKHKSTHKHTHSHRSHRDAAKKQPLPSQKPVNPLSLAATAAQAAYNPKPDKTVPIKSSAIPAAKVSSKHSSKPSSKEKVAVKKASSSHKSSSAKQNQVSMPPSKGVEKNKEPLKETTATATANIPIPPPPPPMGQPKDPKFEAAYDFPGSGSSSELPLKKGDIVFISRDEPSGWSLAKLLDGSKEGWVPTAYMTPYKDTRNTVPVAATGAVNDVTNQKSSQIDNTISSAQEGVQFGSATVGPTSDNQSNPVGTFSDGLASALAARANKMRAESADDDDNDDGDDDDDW
Protein-protein interaction distance between Abp1 SH3-swapped baits, to ABP1 (Abp1 bait with swapped SH3, distance to bait with ABP1 SH3, sheet Fig2C): 12.85 | Protein-protein interaction distance between Abp1 SH3-swapped baits, to BBC1 (distance to Abp1 bait with BBC1 SH3, sheet Fig2C): 13.06 | Protein-protein interaction distance between Abp1 SH3-swapped baits, to BEM1-1 (distance to Abp1 bait with BEM1-1 SH3, sheet Fig2C): 17.48 | Protein-protein interaction distance between Abp1 SH3-swapped baits, to BEM1-2 (distance to Abp1 bait with BEM1-2 SH3, sheet Fig2C): 35.25 | Protein-protein interaction distance between Abp1 SH3-swapped baits, to BOI1 (distance to Abp1 bait with BOI1 SH3, sheet Fig2C): 14.63 | Protein-protein interaction distance between Abp1 SH3-swapped baits, to BOI2 (distance to Abp1 bait with BOI2 SH3, sheet Fig2C): 17.97 | Protein-protein interaction distance between Abp1 SH3-swapped baits, to BUD14 (distance to Abp1 bait with BUD14 SH3, sheet Fig2C): 20.78 | Protein-protein interaction distance between Abp1 SH3-swapped baits, to BZZ1-1 (distance to Abp1 bait with BZZ1-1 SH3, sheet Fig2C): 10.1 | Protein-protein interaction distance between Abp1 SH3-swapped baits, to BZZ1-2 (distance to Abp1 bait with BZZ1-2 SH3, sheet Fig2C): 14.12 | Protein-protein interaction distance between Abp1 SH3-swapped baits, to CDC25 (distance to Abp1 bait with CDC25 SH3, sheet Fig2C): 29.41 | Protein-protein interaction distance between Abp1 SH3-swapped baits, to CTTN (distance to Abp1 bait with CTTN SH3, sheet Fig2C): 15.21 | Protein-protein interaction distance between Abp1 SH3-swapped baits, to CYK3 (distance to Abp1 bait with CYK3 SH3, sheet Fig2C): 30.11 | Protein-protein interaction distance between Abp1 SH3-swapped baits, to DBNL (distance to Abp1 bait with DBNL SH3, sheet Fig2C): 10.74 | Protein-protein interaction distance between Abp1 SH3-swapped baits, to FUS1 (distance to Abp1 bait with FUS1 SH3, sheet Fig2C): 21.97 | Protein-protein interaction distance between Abp1 SH3-swapped baits, to HCLS1 (distance to Abp1 bait with HCLS1 SH3, sheet Fig2C): 11.19 | Protein-protein interaction distance between Abp1 SH3-swapped baits, to HOF1 (distance to Abp1 bait with HOF1 SH3, sheet Fig2C): 33.94 | Protein-protein interaction distance between Abp1 SH3-swapped baits, to HSE1 (distance to Abp1 bait with HSE1 SH3, sheet Fig2C): 11.17 | Protein-protein interaction distance between Abp1 SH3-swapped baits, to LSB1 (distance to Abp1 bait with LSB1 SH3, sheet Fig2C): 9.135 | Protein-protein interaction distance between Abp1 SH3-swapped baits, to LSB3 (distance to Abp1 bait with LSB3 SH3, sheet Fig2C): 9.625 | Protein-protein interaction distance between Abp1 SH3-swapped baits, to MYO3 (distance to Abp1 bait with MYO3 SH3, sheet Fig2C): 0.00 | Protein-protein interaction distance between Abp1 SH3-swapped baits, to MYO5 (distance to Abp1 bait with MYO5 SH3, sheet Fig2C): 5.861 | Protein-protein interaction distance between Abp1 SH3-swapped baits, to NBP2 (distance to Abp1 bait with NBP2 SH3, sheet Fig2C): 19.88 | Protein-protein interaction distance between Abp1 SH3-swapped baits, to PEX13 (distance to Abp1 bait with PEX13 SH3, sheet Fig2C): 8.874 | Protein-protein interaction distance between Abp1 SH3-swapped baits, to PIN3 (distance to Abp1 bait with PIN3 SH3, sheet Fig2C): 8.374 | Protein-protein interaction distance between Abp1 SH3-swapped baits, to RVS167 (distance to Abp1 bait with RVS167 SH3, sheet Fig2C): 9.049 | Protein-protein interaction distance between Abp1 SH3-swapped baits, to SDC25 (distance to Abp1 bait with SDC25 SH3, sheet Fig2C): 35.91 | Protein-protein interaction distance between Abp1 SH3-swapped baits, to SHO1 (distance to Abp1 bait with SHO1 SH3, sheet Fig2C): 10.66 | Protein-protein interaction distance between Abp1 SH3-swapped baits, to SLA1-1 (distance to Abp1 bait with SLA1-1 SH3, sheet Fig2C): 31.98 | Protein-protein interaction distance between Abp1 SH3-swapped baits, to SLA1-2 (distance to Abp1 bait with SLA1-2 SH3, sheet Fig2C): 22.64 | Protein-protein interaction distance between Abp1 SH3-swapped baits, to SLA1-3 (distance to Abp1 bait with SLA1-3 SH3, sheet Fig2C): 9.056 | Protein-protein interaction distance between Abp1 SH3-swapped baits, to YSC84 (distance to Abp1 bait with YSC84 SH3, sheet Fig2C): 9.995 | PPIs gained by Abp1 - SH3-dependent PPIs gained by Abp1 [1]: 24 | SH3-dependent PPIs - SH3-dependent PPIs gained by Abp1 [1]: 13 | SH3-dependent PPIs gained by Abp1 (number of PPIs, Abp1 SH3-swapped with the listed SH3, DHFR-PCA, Fig2D,S2F): 4
